B1: His6-PadC_(Δ1-281) (domain or fragment, M. xanthus, UniProt Q1D3H3 282-489, looked up)
chain: PEPEQRLSGRVTTVLLPLEKLQDESAFKLRPEGDVSGLATDIARLGQLFPVDVRPAGEDRYQLVCGFRRVAALRFLKRDAVQARIHLRLSDEDALVMSLAEAIHATPVGPEVLEAKRDELEAQGRLSAAVRDMLEKALATEDTLAPEGVEEEIDADELAQEVAQRLGAINQDLSLLADVFAALDESRKAELLMQLRYSSELVTYLEGL
modifications: biotinylated with EZ-Link NHS-PEG4-Biotin where it was loaded on the sensor
notes: PadC (MXAN_4634) of Myxococcus xanthus lacking residues 1-281; holds the ParB-like nuclease (ParBC) domain; no cleavage of the tag is described; also called PadCΔN; N-terminally truncated variant of PadC; source: E. coli Rosetta(DE3)pLysS with pMO002, purified (HisTrap HP, MonoQ)

Assay [1] has as its target T1, His6-ParA (M. xanthus, UniProt Q1CVJ3 1-283).
T1 construct: DNA partitioning ATPase ParA of Myxococcus xanthus; Only soluble with ATP, which restricted the analyses to the dimeric form; also called ParA·ATP; purified ParA; source: E. coli Rosetta(DE3)pLysS with pAH17, purified (HisTrap HP) in the presence of magnesium-ATP
T1 sequence (looked up): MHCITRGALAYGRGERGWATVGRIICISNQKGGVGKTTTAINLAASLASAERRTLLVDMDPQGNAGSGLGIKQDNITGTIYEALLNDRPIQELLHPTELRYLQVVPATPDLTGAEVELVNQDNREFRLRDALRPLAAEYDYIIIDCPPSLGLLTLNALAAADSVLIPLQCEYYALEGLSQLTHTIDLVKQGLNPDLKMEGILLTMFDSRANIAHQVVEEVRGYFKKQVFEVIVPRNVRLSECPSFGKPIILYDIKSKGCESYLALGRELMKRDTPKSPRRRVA
The experiment in a line: BLI; BLItz, streptavidin (SAX) sensors loaded with biotinylated PadCΔN, ParA as analyte; BLItz binding buffer with 150 mM potassium glutamate, 5% glycerol and 10 mM ATP. As to conditions: both partners purified. In general terms: Biolayer interferometry detects binding as a change in optical thickness at a sensor tip.

The target in assay [2] is B1. The experiment in a line: BLI; BLItz, streptavidin (SAX) sensors loaded with biotinylated BacPC, PadCΔN as analyte; 25 mM HEPES/KOH pH 7.6, 100 mM KCl, 10 mM MgSO4, 1 mM DTT, 10 µM BSA, 0.01% Tween. As to conditions: both partners purified.

By Kd is commonly meant the equilibrium constant for the complex coming apart. High values mean lower affinity, low ones higher affinity.

In assay [1], B1 came in with a Kd of 900 nM.

B2: His6-BacP_(Δ1-115) (domain or fragment, M. xanthus, UniProt Q1D3H2 116-240, looked up)
chain: DVEPGRLPAERPAVVRPTAVTRPTATPARPTIPAARPMPPPPPSRPTPPPPPARPSAPPAVTRPSAPITRPGLGGLGSKPLPPPPPTRVERAEPQAGQAGSAEPPTPVLVGAGAKKKVVVKKKTR
modifications: biotinylated with EZ-Link NHS-PEG4-Biotin for loading on the sensor
notes: bactofilin BacP of Myxococcus xanthus lacking residues 1-115 (the C-terminal extension); no cleavage of the tag is described; also called BacPC; C-terminal fragment of BacP; source: E. coli Rosetta(DE3)pLysS with pIB154, purified (HisTrap HP)
Consider B2, for which the Kd in assay [2] stood at 340 nM.
